Results on 7 sequences are retold here after the supplement of paper PMC11246515.

± gives the standard deviation of the averaged measurements. A value given as a limit tells only on which side of the number the result lay.

The series can be described thus: total protein half-life in vivo (active degradation + dilution); higher = more stable protein.
Where [1] appears, read: E. coli NCM3722 delta-clpP delta-lon delta-hslV, growth: N-lim chemostat, doubling time 6 h.
The mark [2] stands for this setting: E. coli NCM3722 delta-clpP, growth: N-lim chemostat, doubling time 6 h.
The mark [3] stands for this setting: E. coli NCM3722 delta-hslV, growth: N-lim chemostat, doubling time 6 h.
[4] abbreviates: E. coli NCM3722 delta-lon, growth: N-lim chemostat, doubling time 6 h.
The mark [5] stands for this setting: E. coli NCM3722 delta-smpB, growth: N-lim chemostat, doubling time 6 h.
Setting [6] is: wild type E. coli NCM3722, growth: C-lim chemostat, doubling time 3 h.
The mark [7] stands for this setting: wild type E. coli NCM3722, growth: C-lim chemostat, doubling time 6 h.
Where [8] appears, read: wild type E. coli NCM3722, growth: C-lim chemostat, doubling time 12 h.
The mark [9] stands for this setting: wild type E. coli NCM3722, growth: N-lim chemostat, doubling time 6 h.
Setting [10] is: wild type E. coli NCM3722, growth: N-lim chemostat, doubling time 12 h.
[11] abbreviates: wild type E. coli NCM3722, growth: P-lim chemostat, doubling time 6 h.
Setting [12] is: wild type E. coli NCM3722, growth: P-lim chemostat, doubling time 12 h.

For “MYTKIIGTGSYLPEQVRTNADLEKMVDTSDEWIVTRTGIRERHIAAPNETVSTMGFEAATRAIEMAGIEKDQIGLIVVATTSATHAFPSAACQIQSMLGIKGCPAFDVAAACAGFTYALSVADQYVKSGAVKYALVVGSDVLARTCDPTDRGTIIIFGDGAGAAVLAASEEPGIISTHLHADGSYGELLTLPNADRVNPENSIHLTMAGNEVFKVAVTELAHIVDETLAANNLDRSQLDWLVPHQANLRIISATAKKLGMSMDNVVVTLDRHGNTSAASVPCALDEAVRDGRIKPGQLVLLEAFGGGFTWGSALVRF [P0A6R0]”, the “total protein half-life in vivo” value is 5.01 ± 0.12 h under setting [1]; 4.93 ± 0.2 h under setting [2]; 4.91 ± 0.11 h under setting [3]; 5.578 ± 0.021 h under setting [4]; 4.564 ± 0.018 h under setting [5]; 2.89 ± 0.036 h under setting [6]. The “total protein half-life in vivo” value is, setting by setting: under setting [7], 5.36 ± 0.51 h; under setting [8], 9.94 ± 0.71 h; under setting [9], 4.91 ± 0.27 h; under setting [10], 9.3 ± 1 h; under setting [11], 5.907 ± 0.0094 h; under setting [12], 12.9 ± 1.5 h.

Regarding “MSIQLNGINCFYGAHQALFDITLDCPQGETLVLLGPSGAGKSSLLRVLNLLEMPRSGTLNIAGNHFDFTKTPSDKAIRDLRRNVGMVFQQYNLWPHLTVQQNLIEAPCRVLGLSKDQALARAEKLLERLRLKPYSDRYPLHLSGGQQQRVAIARALMMEPQVLLFDEPTAALDPEITAQIVSIIRELAETNITQVIVTHEVEVARKTASRVVYMENGHIVEQGDASCFTEPQTEAFKNYLSH [P0AAF6]”, the “total protein half-life in vivo” value was 6.06 ± 0.7 h under setting [1]; 5.54 ± 0.19 h under setting [2]; 6.4 h under setting [3]; 5.57 ± 0.91 h under setting [4]; 4.77 ± 0.37 h under setting [5]; greater than 4 h under setting [6]. In addition, the “total protein half-life in vivo” value came out at 6.19 ± 0.35 h under setting [7]; 11.9 h under setting [8]; 5.55 ± 0.86 h under setting [9]; 10.5 ± 0.48 h under setting [10]; 6.11 h under setting [11]; 11.6 ± 0.25 h under setting [12].

As for “MIKHLVAPLVFTSLILTGCQSPQGKFTPEQVAAMQSYGFTESAGDWSLGLSDAILFAKNDYKLLPESQQQIQTMAAKLASTGLTHARMDGHTDNYGEDSYNEGLSLKRANVVADAWAMGGQIPRSNLTTQGLGKKYPIASNKTAQGRAENRRVAVVITTP”, the “total protein half-life in vivo” value is, setting by setting: under setting [1], 1.39 h; under setting [6], 0.967 h; under setting [9], 1.84 h; under setting [11], 1.9 h; under setting [12], 4.97 h.

On to “MSILVTRPSPAGEELVSRLRTLGQVAWHFPLIEFSPGQQLPQLADQLAALGESDLLFALSQHAVAFAQSQLHQQDRKWPRLPDYFAIGRTTALALHTVSGQKILYPQDREISEVLLQLPELQNIAGKRALILRGNGGRELIGDTLTARGAEVTFCECYQRCAIHYDGAEEAMRWQAREVTMVVVTSGEMLQQLWSLIPQWYREHWLLHCRLLVVSERLAKLARELGWQDIKVADNADNDALLRALQ”, for which the “total protein half-life in vivo” value reads like this: under setting [1], 5.34 ± 0.71 h; under setting [2], 4.14 ± 0.96 h; under setting [3], 4.13 ± 0.24 h; under setting [4], 4.69 ± 0.62 h; under setting [5], 3.57 ± 0.23 h; under setting [6], 2.351 ± 0.014 h. Also, the “total protein half-life in vivo” value under setting [7] was 4.45 ± 0.14 h; the “total protein half-life in vivo” value under setting [8] was determined as 9.45 ± 3.5 h; the “total protein half-life in vivo” value under setting [9] is 3.83 ± 0.21 h; the “total protein half-life in vivo” value under setting [10] amounted to 6.5 ± 0.57 h; the “total protein half-life in vivo” value under setting [11] is 5.08 ± 0.62 h; the “total protein half-life in vivo” value under setting [12] was determined as 9.38 ± 0.13 h.

Consider “MHWQTHTVFNQPIPLNNSNLYLSDGALCEAVTREGAGWDSDFLASIGQQLGTAESLELGRLANVNPPELLRYDAQGRRLDDVRFHPAWHLLMQALCTNRVHNLAWEEDARSGAFVARAARFMLHAQVEAGSLCPITMTFAATPLLLQMLPAPFQDWTTPLLSDRYDSHLLPGGQKRGLLIGMGMTEKQGGSDVMSNTTRAERLEDGSYRLVGHKWFFSVPQSDAHLVLAQTAGGLSCFFVPRFLPDGQRNAIRLERLKDKLGNRSNASCEVEFQDAIGWLLGLEGEGIRLILKMGGMTRFDCALGSHAMMRRAFSLAIYHAHQRHVFGNPLIQQPLMRHVLSRMALQLEGQTALLFRLARAWDRRADAKEALWARLFTPAAKFVICKRGMPFVAEAMEVLGGIGYCEESELPRLYREMPVNSIWEGSGNIMCLDVLRVLNKQAGVYDLLSEAFVEVKGQDRYFDRAVRRLQQQLRKPAEELGREITHQLFLLGCGAQMLKYASPPMAQAWCQVMLDTRGGVRLSEQIQNDLLLRATGGVCV”, for which the “total protein half-life in vivo” value under setting [1] amounted to 4.81 ± 0.12 h; the “total protein half-life in vivo” value under setting [2] was found to be 4.91 ± 0.18 h; the “total protein half-life in vivo” value under setting [3] stood at 5.583 ± 0.035 h; the “total protein half-life in vivo” value under setting [4] amounted to 4.72 ± 0.15 h; the “total protein half-life in vivo” value under setting [5] was determined as 5.28 ± 0.11 h; the “total protein half-life in vivo” value under setting [6] is 3.296 ± 0.026 h. The “total protein half-life in vivo” value reads like this: under setting [7], 5.91 ± 0.25 h; under setting [8], 11.3 ± 0.59 h; under setting [9], 5.18 ± 0.13 h; under setting [10], 11.5 ± 0.84 h; under setting [11], 6.51 ± 0.25 h; under setting [12], 11.5 ± 0.058 h.

“MNSLYTAEGVMDKHSLWQRYVPLVRHEALRLQVRLPASVELDDLLQAGGIGLLNAVERYDALQGTAFTTYAVQRIRGAMLDELRSRDWVPRSVRRNAREVAQAIGQLEQELGRNATETEVAERLGIDIADYRQMLLDTNNSQLFSYDEWREEHGDSIELVTDDHQRENPLQQLLDSNLRQRVMEAIETLPEREKLVLTLYYQEELNLKEIGAVLEVGESRVSQLHSQAIKRLRTKLGKL [P0AEM6]”: the “total protein half-life in vivo” value reads like this: under setting [1], 4.94 h; under setting [6], 1.78 ± 0.19 h; under setting [7], 2.5 ± 0.38 h; under setting [8], 3 ± 0.9 h.

Turning to “MRPAGRSNNQVRPVTLTRNYTKHAEGSVLVEFGDTKVLCTASIEEGVPRFLKGQGQGWITAEYGMLPRSTHTRNAREAAKGKQGGRTMEIQRLIARALRAAVDLKALGEFTITLDCDVLQADGGTRTASITGACVALVDALQKLVENGKLKTNPMKGMVAAVSVGIVNGEAVCDLEYVEDSAAETDMNVVMTEDGRIIEVQGTAEGEPFTHEELLILLALARGESNPL [P0CG19]”, the “total protein half-life in vivo” value under setting [1] is 5.037 ± 0.026 h; the “total protein half-life in vivo” value under setting [2] was 4.44 ± 0.39 h; the “total protein half-life in vivo” value under setting [3] was greater than 8 h; the “total protein half-life in vivo” value under setting [4] was 4.79 ± 0.48 h; the “total protein half-life in vivo” value under setting [5] amounted to 4.48 ± 0.11 h; the “total protein half-life in vivo” value under setting [8] came to 11.7 ± 3.8 h. For the same sequence, the “total protein half-life in vivo” value stood at 3.47 ± 0.77 h under setting [9], 6.88 ± 0.082 h under setting [10] and 5.58 ± 0.93 h under setting [11].
